# Starred links: 1 amine or outer side, 2 acyl side, 3 side chain; linkers in the order of their positions; H or OH if unused. Positions of bridges follow the written chain, without caps; N, C: chain ends. Non-standard residues stand in square brackets, D forms with d. No end group written: not given here. Yde = (2S)-2-amino-3-[4-[2-(dimethylamino)ethoxy]phenyl]propanoic acid, CN(C)CCOc1ccc(C[C@H](N[*:1])C(=O)[*:2])cc1; Trp(7-Me) = Cc1cccc2c(C[C@H](N)C(=O)O)c[nH]c12; 2Nal = N[C@@H](Cc1ccc2ccccc2c1)C(=O)O; 3Pal = N[C@@H](Cc1cccnc1)C(=O)O; Dad = desamino-aspartamic acid; αMeL = CC(C)C[C@](C)(N)C(=O)O; Thp = NC1(C(=O)O)CCOCC1; Abu = CC[C@H](N)C(=O)O; Aib = CC(C)(N)C(=O)O; Ava = NCCCCC(=O)O; Sar = CNCC(=O)O
# T1: IL-23 receptor on the surface of HEK-Blue IL-23 cells (UniProt Q5VWK5 24-629, limits assumed)
# T1 sequence (looked up): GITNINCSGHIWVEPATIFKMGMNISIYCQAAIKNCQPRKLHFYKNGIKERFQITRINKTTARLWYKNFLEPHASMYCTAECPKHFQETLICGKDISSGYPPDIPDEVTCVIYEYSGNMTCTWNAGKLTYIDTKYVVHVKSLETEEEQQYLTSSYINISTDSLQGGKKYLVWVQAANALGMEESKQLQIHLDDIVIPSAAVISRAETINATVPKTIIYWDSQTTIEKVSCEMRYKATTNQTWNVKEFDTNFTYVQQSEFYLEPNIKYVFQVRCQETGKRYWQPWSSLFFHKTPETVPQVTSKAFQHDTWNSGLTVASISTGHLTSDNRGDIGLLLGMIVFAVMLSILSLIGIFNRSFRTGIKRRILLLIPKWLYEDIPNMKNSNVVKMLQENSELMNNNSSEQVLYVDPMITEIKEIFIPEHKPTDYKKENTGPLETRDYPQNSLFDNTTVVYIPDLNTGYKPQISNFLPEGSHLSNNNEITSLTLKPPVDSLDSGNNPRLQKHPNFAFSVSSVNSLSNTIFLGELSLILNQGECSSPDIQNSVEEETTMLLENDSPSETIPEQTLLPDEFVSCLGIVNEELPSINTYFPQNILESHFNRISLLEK
# B1: Compound of SEQ ID NO: 8 (peptide)
# peptide: [Ava]CNTWQC[Yde][2Nal][Aib]ENN-NH2
# modifications: lactam (positions not given here); disulfide 2-7; not fully specified (bridges); printed as Apt(§1)-C(@2)-N-T-W-Q-C(@2)-Yde-Nal-Aib-E(§1)-N—N—NH2
# B2: Compound of SEQ ID NO: 122 (peptide)
# peptide: [Dad][Abu]K[Trp(7-Me)]K(Ac)C[Yde][2Nal][Thp]KN[3Pal][Sar]-NH2
# modifications: lactam (positions not given here); thioether 2-6; not fully specified (residue 3, bridges); printed as Dad(§1)-Abu(§3)(@2)-K[aAc](@3)-Wim-K[Ac]-C(@2)-Yde-Nal-Thp-K(§1)-N-Pal-Sar-NH2; also: K[aAc]: Abu2 bonded to epsilon-NH2 of acetylated Lys3, acetyl presumably on alpha-amine
# B3: Compound of SEQ ID NO: 104 (peptide)
# peptide: [Dad]CK[Trp(7-Me)]K(Ac)C[Yde][2Nal][Aib]KN[3Pal][Sar]-NH2
# modifications: lactam (positions not given here); disulfide 2-6; not fully specified (residue 3, bridges); printed as Dad(§1)-C(§3)(@2)-K[aAc](@3)-Wim-K[Ac]-C(@2)-Yde-Nal-Aib-K(§1)-N-Pal-Sar-NH2; also: K[aAc]: Cys2 bonded to epsilon-NH2 of acetylated Lys3, acetyl presumably on alpha-amine
# B4: Compound of SEQ ID NO: 105 (peptide)
# peptide: [Dad]CK[Trp(7-Me)]K(Ac)C[Yde][2Nal][Thp]KN[3Pal][Sar]-NH2
# modifications: lactam (positions not given here); disulfide 2-6; not fully specified (residue 3, bridges); printed as Dad(§1)-C(§3)(@2)-K[aAc](@3)-Wim-K[Ac]-C(@2)-Yde-Nal-Thp-K(§1)-N-Pal-Sar-NH2; also: K[aAc]: Cys2 bonded to epsilon-NH2 of acetylated Lys3, acetyl presumably on alpha-amine
# B5: Compound of SEQ ID NO: 103 (peptide)
# peptide: [Dad]CNT[Trp(7-Me)]K(Ac)C[Yde][2Nal][αMeL]KN[3Pal][Sar]-NH2
# modifications: lactam (positions not given here); disulfide 2-7; not fully specified (bridges); printed as Dad(§1)-C(@2)-N-T-Wim-K[Ac]-C(@2)-Yde-Nal-Mle-K(§1)-N-Pal-Sar-NH2
# B6: Compound of SEQ ID NO: 106 (peptide)
# peptide: [Dad]CK[Trp(7-Me)]K(Ac)C[Yde][2Nal][αMeL]KN[3Pal][Sar]-NH2
# modifications: lactam (positions not given here); disulfide 2-6; not fully specified (residue 3, bridges); printed as Dad(§1)-C(§3)(@2)-K[aAc](@3)-Wim-K[Ac]-C(@2)-Yde-Nal-Mle-K(§1)-N-Pal-Sar-NH2; also: K[aAc]: Cys2 bonded to epsilon-NH2 of acetylated Lys3, acetyl presumably on alpha-amine
# B7: Compound of SEQ ID NO: 102 (peptide)
# peptide: [Dad]CNT[Trp(7-Me)]K(Ac)C[Yde][2Nal][Thp]KN[3Pal][Sar]-NH2
# modifications: lactam (positions not given here); disulfide 2-7; not fully specified (bridges); printed as Dad(§1)-C(@2)-N-T-Wim-K[Ac]-C(@2)-Yde-Nal-Thp-K(§1)-N-Pal-Sar-NH2
# Biological target: T1, IL-23 receptor on the surface of …
# Test: cell-based or functional assay
row,pSTAT3 (nM),Binder
1,5.54,B1
2,0.37,B2
3,0.1,B3
4,0.1,B4
5,0.11,B5
6,0.13,B6
7,0.09,B7

# Source: patent publication US20260258084A1, “New Peptides as Selective IL-23 Receptor Antagonists” (Sanofi, priority 2022, published 2026)
